Here are results for one molecule from patent publication US20250188195A1.

This test concerns the target cotinine-conjugated anti-HER2 affibody (ZQAA1-Cot). The experiment in a line: ELISA, ZQAA1-Cot (2 ug/mL) captured on coated hHER2-ECD-His, anti-hIgG-Fc-HRP, absorbance at 450 nm.

As a reminder, the EC50 (read off the curve) is the concentration at which the effect is half-maximal.

B1: humanized antibody (hz33B2) specifically binding to cotinine (antibody, V domains shown)
VH: QVQLVQSGAEVKKPGASVKVSCKASGYTFTSYWIQWVRQAPGQGLEWMGEIFPGTGTTYYNEKFKGRVTMTIDTSTSTVYMELSSLRSEDTAVYYCARGGYYYDSRAWFAYWGQGTLVTVSS
VL: QAVVTQEPSLTVSPGGTVTLTCRSSTGTVTTSNYANWVQQKPGQAPRGLIGGTNNRAPWTPARFSGSLLGDKAALTLSGAQPEDEAEYYCALWFSNHWVFGGGTKLTVLG
On to B1, for which the EC50 (read off the curve) was 0.06 µg/mL.
